Assay results reported in publication doi:10.1101/2025.03.03.641048 (2025).

B1: mouse ZP2 N-terminal ZP-N1 domain (mZP2-N1), His-tagged (domain or fragment)
chain: VSLPQSENPAFPGTLICDKDEVRIEFSSRFDMEKWNPSVVDTLGSEILNCTYALDLERFVLKFPYETCTIKVVGGYQVNIRVGDTTTDVRYKDDMYHFFCPAIQ
B2: rZP2-N1 S113R (domain or fragment)
chain: SLPQSENPAFPGTLICDKDEVRVEFSSRFDMEKWNPSLVDTFGNEISSCTYALDLEKFILKFPYETCTIKVIGGYQVNIRVQDTNADVRYKDDVHHFFCPAIQ

The binders below were run against IE-3 fragment antigen-binding (Fab) region, recombinant, labelled (labeled with the Blue-NHS labeling kit (chain not told) | labeled with the Blue-NHS labeling kit (chain not told)) (assay: MST).
TIKVVGGYQVNIRVGDTTTDVRYKDDMYHFFCPAIQ (domain or fragment) [mZP2 T103-Q138 linear epitope fused to maltose-binding protein] gave a Kd of 8.9 nM. Work on B1 yielded a Kd of 0.3 nM. Work on B2 yielded a Kd of 16.3 nM.
